Measured values as given in publication PMC3166965.

B1: hSLIV 6 bp stem (structured_RNA)
RNA: GGACCUAUUGCAGUACCUGGUCC
B2: hSLIV 2AP9 (structured_RNA)
RNA: GGCCGUAUUGCAGUACCUCGGCC
modifications: 2-aminopurine at position 15 (loop A9), written as A
B3: hSLII (structured_RNA)
RNA: GGGCUGCCAUUGCACCUCGGCGGUCC
B4: dSLIV 2AP9 (structured_RNA)
RNA: GGCCGUAUUGCAGUACCGCGGCC
modifications: 2-aminopurine at position 15 (loop A9), written as A
B5: dSLIV (structured_RNA)
RNA: GGGCCCGGUAUUGCAGUACCGCCGGGUCC
B6: hSLIV 9 bp stem (structured_RNA)
RNA: GGGCCCGGUAUUGCAGUACCUCCGGGUCC

Experiments:
U2B" [1] = target: T1, U2B" (Homo sapiens, UniProt P08579 1-225); test: filter binding
T1 sequence (P08579 whole entry): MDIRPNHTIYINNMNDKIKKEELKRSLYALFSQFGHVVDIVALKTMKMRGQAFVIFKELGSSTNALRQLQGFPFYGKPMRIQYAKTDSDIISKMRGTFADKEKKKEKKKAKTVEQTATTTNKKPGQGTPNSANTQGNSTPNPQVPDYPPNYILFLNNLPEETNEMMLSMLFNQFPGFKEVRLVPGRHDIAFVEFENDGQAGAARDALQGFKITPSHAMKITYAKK

U2B" [2] = target: T1, U2B"; test: filter binding; remark: listed apart in the source

| Binder | Kd (U2B" [1]) [nM] | binding result (U2B" [2]) |
| --- | --- | --- |
| B1 | 2 |  |
| B2 | 2 |  |
| B3 | 2.1 |  |
| B4 |  | binds |
| B5 | 2 |  |
| B6 | 1 |  |
